This note sets out measurements from publication PMC10724965, “FRIZZLE PANICLE (FZP) regulates rice spikelets development through modulating cytokinin metabolism”.

This series has as its target MBP-FZP (Oryza sativa, UniProt Q8H3Q1 1-318). The experiment in a line: EMSA; 5 nmol protein, 2 nmol probe (so in the source); shift substantially weakened by excess unlabeled probe; EMSA: 10 uL, 2 uL 5x EMSA/Gel-shift binding buffer (Beyotime?), 5 nmol protein, 2 nmol biotin-labeled probe; salt, pH and temperature not given. Particulars: protein: recombinant; tags: MBP (pMAL-c2x); label: biotin; blunt. (Mobility shift assays separate free from complexed probe on a gel.)

Sequence of MBP-FZP (Q8H3Q1 whole entry): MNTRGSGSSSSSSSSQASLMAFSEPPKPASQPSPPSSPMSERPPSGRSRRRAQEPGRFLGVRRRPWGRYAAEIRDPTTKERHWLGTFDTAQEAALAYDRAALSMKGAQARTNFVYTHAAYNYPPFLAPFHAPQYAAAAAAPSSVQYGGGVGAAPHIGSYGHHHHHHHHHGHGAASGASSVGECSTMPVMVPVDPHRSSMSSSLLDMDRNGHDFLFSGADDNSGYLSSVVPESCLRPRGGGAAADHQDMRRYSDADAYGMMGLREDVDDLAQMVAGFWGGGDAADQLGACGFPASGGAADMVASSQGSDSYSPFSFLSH

B1: EMSA-DST-probe (GCC-box, DST promoter) (dsDNA)
DNA 1: GCACAAGACCCGCAGGCCCAATGGCGAGCCGCCACGTGTACCCGCGCCTCCCCTCCCCGGCC
DNA 2: GGCCGGGGAGGGGAGGCGCGGGTACACGTGGCGGCTCGCCATTGGGCCTGCGGGTCTTGTGC
For the molecule B1, the binding result is “binds”.
